This passage reports EC50 results from patent US20250002610A1 (Genmab, published 2025).

The target of test [1] is T1, cynomolgus monkey FAPα on Expi293F cells (cynomolgus monkey (Macaca fascicularis), UniProt Q12884 1-760 (human entry)).
T1 sequence: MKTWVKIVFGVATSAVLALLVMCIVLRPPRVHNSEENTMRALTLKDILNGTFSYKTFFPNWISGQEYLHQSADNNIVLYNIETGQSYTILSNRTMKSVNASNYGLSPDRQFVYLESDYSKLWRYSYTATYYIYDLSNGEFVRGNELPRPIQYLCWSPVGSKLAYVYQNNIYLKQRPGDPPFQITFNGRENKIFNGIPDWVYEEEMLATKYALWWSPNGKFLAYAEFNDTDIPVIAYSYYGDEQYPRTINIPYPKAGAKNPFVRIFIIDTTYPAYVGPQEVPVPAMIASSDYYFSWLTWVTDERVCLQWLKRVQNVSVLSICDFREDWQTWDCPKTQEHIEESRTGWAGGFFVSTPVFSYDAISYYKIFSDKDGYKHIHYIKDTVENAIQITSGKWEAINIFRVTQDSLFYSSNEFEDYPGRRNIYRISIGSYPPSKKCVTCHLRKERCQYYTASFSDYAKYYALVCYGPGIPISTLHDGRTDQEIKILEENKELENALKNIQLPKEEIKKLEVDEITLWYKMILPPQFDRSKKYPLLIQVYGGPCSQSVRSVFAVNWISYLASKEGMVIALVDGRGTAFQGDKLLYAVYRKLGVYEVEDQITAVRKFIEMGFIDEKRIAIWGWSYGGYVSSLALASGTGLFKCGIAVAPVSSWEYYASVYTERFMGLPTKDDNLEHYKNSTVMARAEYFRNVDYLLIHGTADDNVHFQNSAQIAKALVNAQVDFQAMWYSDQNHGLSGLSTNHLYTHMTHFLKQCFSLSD
The test can be described thus: flow cytometry, Expi293F cells expressing cynomolgus monkey FAPα, n = 2. On the procedure: (§1) Binding of BisG1-FAPα-FERL/DR4-FERR, BisG1-FAPα-FEAL/b12-FEAR and IgG1-FAPα-FERL to FAPα of species commonly used for nonclinical toxicology studies was assessed by flow cytometry using Expi293F cells transiently expressing FAPα from different animal species. IgG1-b12 was included as negative control.
(§2) Expi293F cells expressing recombinant FAPα from various species (human, cynomolgus monkey, dog, pig, rat or mouse) were seeded (20,000 cells/well) in 96-Well round bottom plates (Greiner Bio-one, Cat #650101). Antibody dilutions were prepared using FACS buffer, consisting of PBS (Capricorn Scientific, Cat #PBS-10XA, diluted to 1×PBS in distilled water)+1% BSA (Roche, Cat #10735086001)+0.02% Sodium Azide (Bio-World, Cat #41920044-3). Plates were centrifuged, supernatant was removed, and cells were resuspended in 100 μL of antibody dilutions (concentration range 30-0.00017 μg/mL with three-fold serial dilutions using FACS buffer) of BisG1-FAPα-FERL/DR4-FERR, BisG1-FAPα-FEAL/b12-FEAR, IgG1-FAPα-FERL and IgG1-b12 and incubated for 30 min at 4° C. […] After 30 min incubation at 4° C., cells were washed with FACS buffer and resuspended in FACS buffer supplemented with TO-PRO-3 Iodide viability marker (Invitrogen, Cat #T3605, diluted 1:4,000). Antibody binding to viable cells (gMFI of PE on TO-PRO-3 negative cells) was analyzed by flow cytometry on a FACS Celesta and FACS_Diva software (first two experiments) or iQue® 3 and FlowJo software (last experiment). gMFI was determined and visualized using GraphPad Prism. Binding curves were analyzed using nonlinear regression analysis. The concentration (pg/mL) at which 50% of the maximal effect was observed (EC₅₀) was derived from the fitted curves.

The target in test [2] is T2, human FAPα (Fibroblast activation protein alpha), cell surface expressed (human, UniProt Q12884 1-760).
T2 construct: Endogenous on human lung fibroblasts and CAFs
T2 sequence: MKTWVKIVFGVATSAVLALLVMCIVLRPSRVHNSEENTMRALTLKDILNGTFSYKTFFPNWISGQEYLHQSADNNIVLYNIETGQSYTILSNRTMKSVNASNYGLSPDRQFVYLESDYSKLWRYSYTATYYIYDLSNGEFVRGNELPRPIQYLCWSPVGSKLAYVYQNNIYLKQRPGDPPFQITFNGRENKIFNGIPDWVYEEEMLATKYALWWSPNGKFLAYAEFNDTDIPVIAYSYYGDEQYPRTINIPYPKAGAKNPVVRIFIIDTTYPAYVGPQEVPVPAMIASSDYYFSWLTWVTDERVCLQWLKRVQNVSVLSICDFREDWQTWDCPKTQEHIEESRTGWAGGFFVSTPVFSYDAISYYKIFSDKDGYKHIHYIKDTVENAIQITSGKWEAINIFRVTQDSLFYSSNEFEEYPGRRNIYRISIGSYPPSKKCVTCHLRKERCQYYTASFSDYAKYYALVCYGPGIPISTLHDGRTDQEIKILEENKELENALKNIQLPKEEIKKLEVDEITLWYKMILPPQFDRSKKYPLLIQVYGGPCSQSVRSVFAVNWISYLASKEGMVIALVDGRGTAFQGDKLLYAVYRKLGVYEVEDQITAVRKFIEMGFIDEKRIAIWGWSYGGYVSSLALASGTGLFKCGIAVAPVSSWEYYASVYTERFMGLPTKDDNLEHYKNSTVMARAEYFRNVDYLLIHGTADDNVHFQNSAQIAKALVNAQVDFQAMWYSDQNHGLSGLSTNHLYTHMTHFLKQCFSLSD
In words: flow cytometry, Expi293F cells expressing human FAPα, n = 2. On the procedure: as §1, §2
(In general: Flow cytometry measures light scatter and fluorescence of single cells or particles in a stream.)

Test [3] concerns the target T3, human DR4 (Death Receptor 4), cell surface expressed on human tumor cell lines (human, UniProt O00220 24-468).
T3 construct: also called TNFRSF10A; TRAIL-R1
T3 sequence: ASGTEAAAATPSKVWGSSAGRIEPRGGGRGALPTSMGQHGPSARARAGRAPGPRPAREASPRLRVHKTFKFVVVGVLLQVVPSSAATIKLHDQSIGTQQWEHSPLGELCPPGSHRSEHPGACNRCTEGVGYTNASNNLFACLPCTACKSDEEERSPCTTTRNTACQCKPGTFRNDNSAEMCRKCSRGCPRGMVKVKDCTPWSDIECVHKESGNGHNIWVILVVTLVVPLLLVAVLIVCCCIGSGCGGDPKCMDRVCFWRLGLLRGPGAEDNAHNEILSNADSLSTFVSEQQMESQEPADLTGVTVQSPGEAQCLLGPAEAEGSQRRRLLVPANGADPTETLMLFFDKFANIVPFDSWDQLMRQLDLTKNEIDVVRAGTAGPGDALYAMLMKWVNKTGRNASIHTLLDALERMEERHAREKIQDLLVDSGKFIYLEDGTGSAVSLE
The test can be described thus: flow cytometry, HCT-15 cells, n = 1.

B1: BisG1-FAPα-FERL/DR4-FERR (bispecific antibody, human IgG1, kappa, lambda)
heavy 1: EVQLLESGGGLVQPGGSPRLSCEASGFTFSSYALSWVRQAPGKGLEWVSAISGSGGGRYYADSVKGRFTISRDNSKNTLFLQMNSLRAEDTAVYYCAKEGYSSSGTYWDHWGQGTLVTVSSASTKGPSVFPLAPSSKSTSGGTAALGCLVKDYFPEPVTVSWNSGALTSGVHTFPAVLQSSGLYSLSSVVTVPSSSLGTQTYICNVNHKPSNTKVDKRVEPKSCDKTHTCPPCPAPEFERGPSVFLFPPKPKDTLMISRTPEVTCVVVDVSHEDPEVKFNWYVDGVEVHNAKTKPREEQYNSTYRVVSVLTVLHQDWLNGKEYKCKVSNKALPAPIEKTISKAKGQPREPQVYTLPPSREEMTKNQVSLTCLVKGFYPSDIAVEWESNGQPENNYKTTPPVLDSDGSFLLYSKLTVDKSRWQQGNVFSCSVMHEALHNHYTQKSLSLSPG
light 1: AIQMTQSPSSVSASVGDRVTITCRASQGVSSWLAWYQQKPGRAPKLLIYVASTLQSGVPSRFSGSGSGTDFTLTINSLQPEDFATYYCQQANSFPPTFGQGTRLEMKRTVAAPSVFIFPPSDEQLKSGTASVVCLLNNFYPREAKVQWKVDNALQSGNSQESVTEQDSKDSTYSLSSTLTLSKADYEKHKVYACEVTHQGLSSPVTKSFNRGEC
heavy 2: QVQLQESGPGLVKPSGTLSLTCAVSGGSISSYSWWSWIRQPPGKGLEWIGELYHSGSTNYNPSLKSRVTISVDKSKNQFSLKLRSVTAADTAVYYCVRGVATIDYWGQGTLVTVSSASTKGPSVFPLAPSSKSTSGGTAALGCLVKDYFPEPVTVSWNSGALTSGVHTFPAVLQSSGLYSLSSVVTVPSSSLGTQTYICNVNHKPSNTKVDKRVEPKSCDKTHTCPPCPAPEFERGPSVFLFPPKPKDTLMISRTPEVTCVVVDVSHEDPEVKFNWYVDGVEVHNAKTKPREEQYNSTYRVVSVLTVLHQDWLNGKEYKCKVSNKALPAPIEKTISKAKGQPREPQVYTLPPSREEMTKNQVSLTCLVKGFYPSDIAVEWESNGQPENNYKTTPPVLDSDGSFFLYSRLTVDKSRWQQGNVFSCSVMHEALHNHYTQKSLSLSPG
light 2: QSALTQPPSASGSPGQSVTISCTGTSSDVGGYNFVSWYQQDPGKAPKLLIYEVTKRPSGVPDRFSGSKSGNTASLTVSGLQAEDEADYYCSSYAGSNNVMFGGGTKLTVLGQPKAAPSVTLFPPSSEELQANKATLVCLISDFYPGAVTVAWKADSSPVKAGVETTTPSKQSNNKYAASSYLSLTPEQWKSHRSYSCQVTHEGSTVEKTVAPTECS
notes: Human IgG1 bispecific made by controlled Fab-arm exchange of IgG1-FAPα-FERL and IgG1-DR4-FERR; monovalent for FAPα and for DR4; also called GEN1057
B1: the concentration for a half-maximal effect (EC50) (commonly the concentration at which the effect is half-maximal) in test [1] turned out to be 0.36 µg/mL; in test [2], 0.32 µg/mL; in test [3], 0.59 µg/mL.

B2: BisG1-b12-FERL/DR4-FERR (bispecific antibody, human IgG1, kappa, lambda)
heavy 1: QVQLVQSGAEVKKPGASVKVSCQASGYRFSNFVIHWVRQAPGQRFEWMGWINPYNGNKEFSAKFQDRVTFTADTSANTAYMELRSLRSADTAVYYCARVGPYSWDDSPQDNYYMDVWGKGTTVIVSSASTKGPSVFPLAPSSKSTSGGTAALGCLVKDYFPEPVTVSWNSGALTSGVHTFPAVLQSSGLYSLSSVVTVPSSSLGTQTYICNVNHKPSNTKVDKRVEPKSCDKTHTCPPCPAPEFERGPSVFLFPPKPKDTLMISRTPEVTCVVVDVSHEDPEVKFNWYVDGVEVHNAKTKPREEQYNSTYRVVSVLTVLHQDWLNGKEYKCKVSNKALPAPIEKTISKAKGQPREPQVYTLPPSREEMTKNQVSLTCLVKGFYPSDIAVEWESNGQPENNYKTTPPVLDSDGSFLLYSKLTVDKSRWQQGNVFSCSVMHEALHNHYTQKSLSLSPG
light 1: EIVLTQSPGTLSLSPGERATFSCRSSHSIRSRRVAWYQHKPGQAPRLVIHGVSNRASGISDRFSGSGSGTDFTLTITRVEPEDFALYYCQVYGASSYTFGQGTKLERKRTVAAPSVFIFPPSDEQLKSGTASVVCLLNNFYPREAKVQWKVDNALQSGNSQESVTEQDSKDSTYSLSSTLTLSKADYEKHKVYACEVTHQGLSSPVTKSFNRGEC
heavy 2: QVQLQESGPGLVKPSGTLSLTCAVSGGSISSYSWWSWIRQPPGKGLEWIGELYHSGSTNYNPSLKSRVTISVDKSKNQFSLKLRSVTAADTAVYYCVRGVATIDYWGQGTLVTVSSASTKGPSVFPLAPSSKSTSGGTAALGCLVKDYFPEPVTVSWNSGALTSGVHTFPAVLQSSGLYSLSSVVTVPSSSLGTQTYICNVNHKPSNTKVDKRVEPKSCDKTHTCPPCPAPEFERGPSVFLFPPKPKDTLMISRTPEVTCVVVDVSHEDPEVKFNWYVDGVEVHNAKTKPREEQYNSTYRVVSVLTVLHQDWLNGKEYKCKVSNKALPAPIEKTISKAKGQPREPQVYTLPPSREEMTKNQVSLTCLVKGFYPSDIAVEWESNGQPENNYKTTPPVLDSDGSFFLYSRLTVDKSRWQQGNVFSCSVMHEALHNHYTQKSLSLSPG
light 2: QSALTQPPSASGSPGQSVTISCTGTSSDVGGYNFVSWYQQDPGKAPKLLIYEVTKRPSGVPDRFSGSKSGNTASLTVSGLQAEDEADYYCSSYAGSNNVMFGGGTKLTVLGQPKAAPSVTLFPPSSEELQANKATLVCLISDFYPGAVTVAWKADSSPVKAGVETTTPSKQSNNKYAASSYLSLTPEQWKSHRSYSCQVTHEGSTVEKTVAPTECS
notes: Fab-arm exchange of IgG1-b12-FERL and IgG1-DR4-FERR; also called bsIgG1-ctrl-FERLxDR4-FERR
Take B2: the concentration for a half-maximal effect (EC50) in test [3] came to 0.59 µg/mL.
